The values that follow come from patent US20120251547A1 (Amgen, published 2012).

Assay [1] concerns the target T1, huIL-17RA-FLAG-polyHis (human, UniProt Q96F46 33-320).
T1 construct: also called IL-17RA-FLAG-pHis; wild-type IL-17RA
Kind of assay: binning; IL-17RA held by bead mAb O.
Procedure: (§1) The method employed the Bio-Plex Workstation and software (BioRad, Hercules, Calif.), as well as reagents from Luminex® Corp. (Austin, Tex.). […] The mouse-anti-human IgG coating was evaluated and the beads quantified by FACS. Each bead code was separately incubated with 10 ul of anti-IL-17RA antibody for 1 hour at room temperature and then washed. The beads were pooled and then dispensed to a 96-well filter plate (Millipore, Billerica, Mass., product #MSBVN1250). […] The PE-tagged monovalent antibody will detect the presence of the second mAb added to the well, but not the first mAb captured by the monovalent mouse-anti-human IgG antibody. Beads were resuspended in 120u1 PBSAT and at least 100 events/bead code were collected on the Bio-Plex workstation as per the manufacturer's recommended protocol.

For assay [2], the target named is T1, huIL-17RA-FLAG-polyHis. The assay is described as follows: binning; IL-17RA held by bead mAb Q.
Assay [3] concerns the target T1, huIL-17RA-FLAG-polyHis. The assay is described as follows: binning; IL-17RA held by bead mAb M.
For assay [4], the target named is T1, huIL-17RA-FLAG-polyHis. The assay is described as follows: binning; IL-17RA held by bead mAb I.
Procedure: as §1
For assay [5], the target named is T1, huIL-17RA-FLAG-polyHis. The assay is described as follows: binning; IL-17RA held by bead mAb P.
Procedure: as §1
Assay [6] deals with T1, huIL-17RA-FLAG-polyHis. Kind of assay: binning; IL-17RA held by bead mAb L.
Assay [7] deals with T1, huIL-17RA-FLAG-polyHis. The assay is described as follows: binning; IL-17RA held by bead mAb N.
The target in assay [8] is T1, huIL-17RA-FLAG-polyHis. The assay is described as follows: binning; IL-17RA held by bead mAb K.
Procedure: as §1
Assay [9] concerns the target T1, huIL-17RA-FLAG-polyHis. The assay is described as follows: binning; IL-17RA held by bead mAb C.
Procedure: as §1
In assay [10] the target is T1, huIL-17RA-FLAG-polyHis. Kind of assay: binning; IL-17RA held by bead mAb B.
Procedure: as §1
Assay [11] has as its target T1, huIL-17RA-FLAG-polyHis. Kind of assay: binning; IL-17RA held by bead mAb A.
Assay [12] has as its target T1, huIL-17RA-FLAG-polyHis. The assay is described as follows: binning; IL-17RA held by bead mAb D.
The target of assay [13] is T1, huIL-17RA-FLAG-polyHis. The assay is described as follows: binning; IL-17RA held by bead mAb F.
Procedure: as §1
For assay [14], the target named is T1, huIL-17RA-FLAG-polyHis. The assay is described as follows: binning; IL-17RA held by bead mAb E.
Assay [15] has as its target T1, huIL-17RA-FLAG-polyHis. The assay is described as follows: binning; IL-17RA held by bead mAb H.
Procedure: as §1
In assay [16] the target is T1, huIL-17RA-FLAG-polyHis. Kind of assay: binning; IL-17RA held by bead mAb J.
Procedure: The method employed the Bio-Plex Workstation and software (BioRad, Hercules, Calif.), as well as reagents from Luminex® Corp. (Austin, Tex.). The manufacturers' basic protocols were followed except where noted below (see www.bio-rad.com and www.luminexcorp.com for details). […] The mouse-anti-human IgG coating was evaluated and the beads quantified by FACS. Each bead code was separately incubated with 10 ul of anti-IL-17RA antibody for 1 hour at room temperature and then washed. The beads were pooled and then dispensed to a 96-well filter plate (Millipore, Billerica, Mass., product #MSBVN1250). […] The PE-tagged monovalent antibody will detect the presence of the second mAb added to the well, but not the first mAb captured by the monovalent mouse-anti-human IgG antibody. Beads were resuspended in 120u1 PBSAT and at least 100 events/bead code were collected on the Bio-Plex workstation as per the manufacturer's recommended protocol.
Assay [17] addresses T1, huIL-17RA-FLAG-polyHis. The assay is described as follows: binning; IL-17RA held by bead mAb G.
The target in assay [18] is T1, huIL-17RA-FLAG-polyHis. Kind of assay: binning; IL-17RA held by bead mAb R.

Substitutions are numbered along the chain they refer to.

B1: AMH4/AML4 (antibody, IgG2, V domains shown)
VH: QVQLVESGGGVVQPGRSLRLSCAASGINFSSYGMHWVRQAPGKGLEWVAVIWYDGSNKHYADSVKGRFTISRDNSKNTLYLQMNSLRAEDTAVYYCARDTGVYWGQGTLVTVSS
VL: not shown
notes: human mAb from IgG2 XenoMouse mice; also called AM-4; antibody B
As to B1, the “normalized MFI” value was found to be 2640 in assay [1]; 8280 in [2]; 1300 in [3]; 3710 in assay [4]; 5020 in [5]; 1980 in assay [6]. For the same molecule, the “normalized MFI” value was 1950 in assay [7]; 4970 in [8]; 150 in assay [9]; 453 in assay [10]; -326 in assay [11]; 213 in assay [12]. Also, the “normalized MFI” value in [13] was determined as 173; in assay [14], 182; in assay [15], 6790; in assay [16], 1400; in assay [17] it was 235; in [18], 5880.

B2: AMH7/AML7 (antibody, IgG2, V domains shown)
VH: QVQLVQSGAEVKKPGASVKVSCKASGYTLTRYGISWVRQAPGQGLEWMGWISAYNGNTNYAQKLQGRVTMTTDTSTSTAYMELRSLRSDDTAVYYCARRDYDILTGYYNGFDPWGQGTLVTVSS
VL: DIQMTQSPSSLSASVGDRVTITCRASQGIRNDLGWYQQKPGKAPKRLIYAASSLQSGVPSRFSGSGSGTEFTLTISSLQPEDFATYYCLQHKSYPLTFGGGTKVEIK
notes: human mAb from IgG2 XenoMouse mice; also called AM-7; antibody D
Turning to B2, the “normalized MFI” value amounted to 5540 in [1]; 4690 in assay [2]; 2980 in assay [3]; 6650 in assay [4]; 5640 in assay [5]; 4260 in [6]. Besides, the “normalized MFI” value in assay [7] is 3840; in [8] it was 8680; in assay [9], 217; in assay [10], 684; in assay [11], -233; in assay [12] it was 207. Also, the “normalized MFI” value amounted to 269 in [13]; 192 in assay [14]; 3180 in assay [15]; 3640 in assay [16]; 318 in assay [17]; 3550 in assay [18].

B3: AMH6/AML6 (antibody, IgG2, V domains shown)
VH: B2 VH
VL: B2 VL
notes: human mAb from IgG2 XenoMouse mice; also called AM-6; antibody E
On to B3, for which the “normalized MFI” value in [1] was found to be 3310; in assay [2], 2390; in assay [3], 1770; in [4] it was 4330; in assay [5] it was 3530; in [6], 2660. Besides, the “normalized MFI” value in [7] is 2410; in [8], 5600; in [9], 173; in [10], 447; in assay [11], -70.5; in assay [12] it was 168. For the same molecule, the “normalized MFI” value in [13] was determined as 152; in assay [14], 130; in assay [15], 2540; in assay [16] it was 2420; in [17], 334; in assay [18], 1660.

B4: AMH8/AML8 (antibody, IgG2, V domains shown)
VH: B2 VH with Y27N, L29F, R31G, K63N
VL: B2 VL
notes: human mAb from IgG2 XenoMouse mice; also called AM-8; antibody C
On to B4, for which the “normalized MFI” value is 5520 in assay [1]; 5500 in assay [2]; 2880 in assay [3]; 6720 in assay [4]; 5960 in assay [5]; 3540 in assay [6]. The “normalized MFI” value in assay [7] was 3630; in assay [8], 8220; in assay [9] it was 260; in [10], 816; in [11], -178; in [12], 264. Further, the “normalized MFI” value in [13] amounted to 239; in assay [14], 163; in assay [15], 2950; in assay [16], 3590; in assay [17], 346; in [18], 3950.
